Article PMC9491710 (Science Advances, 2022)

Assays:
cryo-EM structure = molecular target: the molecule itself; assay: cryo-EM structure
crystal structure [1] = molecular target: the molecule itself; assay: crystal structure
crystal structure [2] = molecular target: the molecule itself; assay: crystal structure; remark: listed apart in the source
crystal structure [3] = molecular target: the molecule itself; assay: crystal structure; remark: listed apart in the source

B1: K3DAK4 bimodule core (KS3-DH3-ACP-KS4 fragment of BBR47_39880, amino acids 532 to 2220) (domain or fragment, UniProt C0ZGQ6 532-2220, looked up)
chain: SPSSVVRDVAIIGLSGRYPQAKNVDEFWNRLKEGKNCISEIPKDRWDWQSFFDEEKGKKESMYTKWGGFIDDMDKFDPLFFQISPKEAEEMDPQERLFLQEAYASIEDAGYTPTTLCESRKVGVFVGVMNGNYPTGATYWSIANRLSYLLNFQGPSVAVDTACSASLTAIHFALESLYSGTSECAIAGGVNLIVDPVHYMKLSALTMLSPSNQCKSFGDQADGFVDGEGVGAIVLKPLDKAIADGDHIYGVIKGSMMNAGGKTNGYTVPNPQAQAQLVADALQRANVHARTVSYLEAHGTGTELGDPIEVAGLTRAFEKDTQDKQFCALGSAKSNIGHCESAAGIAGVTKILLQLKHAQLVPSLHSRTLNPNIDFTKTPFVVQQELAEWRRPIVEINGTTNEYPRIAGISSFGAGGSNAHVIIEEYIPEEQKQSSLKITPQNPAIFVLSAKNAERLYEIVQQLLAFIQEHSLSDEHLADMAYTLQVGRVAMEERIAVIAGTMKELQQKLTAYVKGQEHIADLYRGQVNRNQEMLDILTSDDELEETIARWMERGKYSKLLDLWVKGLSIDWNKLYQEEQPGRISLPTYPFAKESYWTHARSVSSSTGVGVIHPFLHQNTSDFMEQRFSSMFTGQEFFLSDHVIKGQRVLPSAAYLEMARAAIQQATGGLDSERELEGLRFKNVVWTQPLAVGPEPVQAHIELYPEANGEIVFEIYSDSKQDRDQTTEIVHSQGSAVLCSIPDIPSFDLSVLQEQCSLRTLSAEQCYDAFKKMGVDYGPAHRGIEQILIGQEQVLAKLSLPSSVVKTQGQFGLHPSLLDAALQSSLGLMMATSDFSLILPFALEEMVIVGDCSSSMWALIRYREGSKAGDRVEKFDIDLCDENGNVQVRMKGFSTRKIANVSVRSEVEVPKASVPLEEEKAIDSSSLMEQATPYFKKLLSSVIKLPANKMEADASLEKYGVDSIVAMQMTKELEKQFGSLPKTLFFEYQTIKELTGYFLENYRENLMHILGMRENAEASLTQESEATMVDEVKAQTERRSKKRKSQRFASLRMETQPPKGALDIAIIGISGRYPQARNIHDFWKNLRDGKDCITEIPKDRWDHSLYFDEAKDKLGKSYSKWGGFIDGVDQFDPLFFHISPREAELMDPQERLFLQCVYETIEDAGYTRETLGKHEGLGGNVGVYVGVMYEEYQLYASAEQALGRALAIAGSPASIANRVSYFCNFHGPSMAVDTMCSSSLTGIHLACHSLQRGECEVAIAGGVNVSIHPNKYLYLSQGKFASSKGRCESFGEGGDGYVPGEGVGAVLLKPLARAIADGDHIYGVIKGSAINHGGKTNGYTVPNPHSQSRVIRRAFEEAGIHPRTVSYIEAHGTGTSLGDPIEIAGLTKTFQEYTKENQFCAIGSAKSNIGHGESAAGIAGLTKILLQMKYKRLVPSLHSRTLNPNIDFSKTPFVVQQELAEWKRPVIEIDGVTREYARIAGISSFGAGGANAHLVIEEYIEAEHRPPSSISSKNPAVIVLSAKNKDRLREQVQRLLSAIREQVLTDNDLAEIAYTLQVGREAMEERFAVIVKSISELEAKLTYYLKDEADSPDLFTGQVKRNKETMDVFAADEDLQQAIDTWITKGKYAKILQMWVQGLIFDWNKLYGDTKPRRISLPAYPFARERYWLPKVESQAIGLTAGEPAYLHPL
- stoichiometry N (cryo-EM structure): 2

B2: isolated KS4 domain (amino acids 1587 to 2220 of BBR47_39880) (domain or fragment, UniProt C0ZGQ6 1587-2220, looked up)
chain: PPKGALDIAIIGISGRYPQARNIHDFWKNLRDGKDCITEIPKDRWDHSLYFDEAKDKLGKSYSKWGGFIDGVDQFDPLFFHISPREAELMDPQERLFLQCVYETIEDAGYTRETLGKHEGLGGNVGVYVGVMYEEYQLYASAEQALGRALAIAGSPASIANRVSYFCNFHGPSMAVDTMCSSSLTGIHLACHSLQRGECEVAIAGGVNVSIHPNKYLYLSQGKFASSKGRCESFGEGGDGYVPGEGVGAVLLKPLARAIADGDHIYGVIKGSAINHGGKTNGYTVPNPHSQSRVIRRAFEEAGIHPRTVSYIEAHGTGTSLGDPIEIAGLTKTFQEYTKENQFCAIGSAKSNIGHGESAAGIAGLTKILLQMKYKRLVPSLHSRTLNPNIDFSKTPFVVQQELAEWKRPVIEIDGVTREYARIAGISSFGAGGANAHLVIEEYIEAEHRPPSSISSKNPAVIVLSAKNKDRLREQVQRLLSAIREQVLTDNDLAEIAYTLQVGREAMEERFAVIVKSISELEAKLTYYLKDEADSPDLFTGQVKRNKETMDVFAADEDLQQAIDTWITKGKYAKILQMWVQGLIFDWNKLYGDTKPRRISLPAYPFARERYWLPKVESQAIGLTAGEPAYLHPL
- stoichiometry N (crystal structure [1]): 2

B3: isolated DH3 domain (amino acids 1135 to 1434 of BBR47_39880) (domain or fragment, UniProt C0ZGQ6 1135-1434, looked up)
chain: SSTGVGVIHPFLHQNTSDFMEQRFSSMFTGQEFFLSDHVIKGQRVLPSAAYLEMARAAIQQATGGLDSERELEGLRFKNVVWTQPLAVGPEPVQAHIELYPEANGEIVFEIYSDSKQDRDQTTEIVHSQGSAVLCSIPDIPSFDLSVLQEQCSLRTLSAEQCYDAFKKMGVDYGPAHRGIEQILIGQEQVLAKLSLPSSVVKTQGQFGLHPSLLDAALQSSLGLMMATSDFSLILPFALEEMVIVGDCSSSMWALIRYREGSKAGDRVEKFDIDLCDENGNVQVRMKGFSTRKIANVSVR
- stoichiometry N (crystal structure [2]): 2

B4: isolated KS3 domain (amino acids 532 to 1135 of BBR47_39880) (domain or fragment, UniProt C0ZGQ6 532-1135, looked up)
chain: SPSSVVRDVAIIGLSGRYPQAKNVDEFWNRLKEGKNCISEIPKDRWDWQSFFDEEKGKKESMYTKWGGFIDDMDKFDPLFFQISPKEAEEMDPQERLFLQEAYASIEDAGYTPTTLCESRKVGVFVGVMNGNYPTGATYWSIANRLSYLLNFQGPSVAVDTACSASLTAIHFALESLYSGTSECAIAGGVNLIVDPVHYMKLSALTMLSPSNQCKSFGDQADGFVDGEGVGAIVLKPLDKAIADGDHIYGVIKGSMMNAGGKTNGYTVPNPQAQAQLVADALQRANVHARTVSYLEAHGTGTELGDPIEVAGLTRAFEKDTQDKQFCALGSAKSNIGHCESAAGIAGVTKILLQLKHAQLVPSLHSRTLNPNIDFTKTPFVVQQELAEWRRPIVEINGTTNEYPRIAGISSFGAGGSNAHVIIEEYIPEEQKQSSLKITPQNPAIFVLSAKNAERLYEIVQQLLAFIQEHSLSDEHLADMAYTLQVGRVAMEERIAVIAGTMKELQQKLTAYVKGQEHIADLYRGQVNRNQEMLDILTSDDELEETIARWMERGKYSKLLDLWVKGLSIDWNKLYQEEQPGRISLPTYPFAKESYWTHARSVSS
- stoichiometry N (crystal structure [3]): 2
